Source: patent US20200271647A1 (SEOUL NATIONAL UNIVERSITY HOSPITAL, published 2020)
Positions count from the first letter of the chain named.

B1: VH5/Vk0 (antibody, V domains shown)
VH: QVQLVQSGAEVKKPGSSVKVSCQGSGYSFPTHWITWVRQAPGQGLEWMGTIDPTDSYNFYGPSFQGRVTITADSSTSTAYMELSSLRSEDTAVYYCARDGNYYDSRGYYYDTFDMWGQGTLVTVSS
VL: DIQMTQSPSFLSASVGDRVTITCRASQGISTYLAWYQQKPGTAPKLLIYSASTLESGVPSRFSGSGSGTDFTLTISSLQPEDSATYYCQQADSFPLTFGGGTKVEIK
notes: CDR-grafted variant of the IgG1-based anti-cMet antibody 1E4; also called anti-cMet candidate antibody VH5/Vk0
B2: VH0/Vk2 (antibody, V domains shown)
VH: QVQLVQSGAEVKKPGESLRISCQGSGYSFPTHWITWVRQMPGKGLEWMGTIDPTDSYNFYGPSFQGHVTISADSSSSTAYLQWSSLKASDTAMYYCARDGNYYDSRGYYYDTFDMWGQGTLVTVSS
VL: B1 VL with F10S, T42K, S83F
notes: also called anti-cMet candidate antibody VH0/Vk2
B3: VH5/Vk2 (antibody, V domains shown)
VH: B1 VH
VL: B1 VL with F10S, T42K, S83F
notes: CDR-grafted variant of the IgG1-based anti-cMet antibody 1E4; also called anti-cMet candidate antibody VH5/Vk2
B4: VH0/Vk0 (antibody, V domains shown)
VH: B2 VH
VL: B1 VL
notes: Derived from the IgG1-based 1E4 by a K to R change in the CH1 domain (G1m(3) allotype) and an S to T change in the light chain constant region (Km3 allotype); also called VMDO2 VH0/Vk0
B5: VH4/Vk0 (antibody, V domains shown)
VH: B1 VH with V93M
VL: B1 VL
notes: CDR-grafted variant of the IgG1-based anti-cMet antibody 1E4; also called anti-cMet candidate antibody VH4/Vk0
B6: VH6/Vk0 (antibody, V domains shown)
VH: B1 VH with Q23K, G24A, S74K
VL: B1 VL
notes: CDR-grafted variant of the IgG1-based anti-cMet antibody 1E4; also called anti-cMet candidate antibody VH6/Vk0
B7: VH4/Vk2 (antibody, V domains shown)
VH: B1 VH with V93M
VL: B1 VL with F10S, T42K, S83F
notes: CDR-grafted variant of the IgG1-based anti-cMet antibody 1E4; also called anti-cMet candidate antibody VH4/Vk2
B8: VH6/Vk2 (antibody, V domains shown)
VH: B1 VH with Q23K, G24A, S74K
VL: B1 VL with F10S, T42K, S83F
notes: CDR-grafted variant of the IgG1-based anti-cMet antibody 1E4; also called anti-cMet candidate antibody VH6/Vk2
B9: VH2/Vk0 (antibody, V domains shown)
VH: B2 VH with Q1E, R19K, Q23K, H67Q, S74K, S76I
VL: B1 VL
B10: VH2/Vk2 (antibody, V domains shown)
VH: B2 VH with Q1E, R19K, Q23K, H67Q, S74K, S76I
VL: B1 VL with F10S, T42K, S83F

Target: T1, human c-Met antigen (Sino Biological) (human, UniProt P08581 25-932)
T1 construct: Bought antigen used as the analyte in SPR; also called hepatocyte growth factor receptor; HGFR
Test: derived from SPR KD; index 1 divided by the ratio of VH0/Vk0
Protocol: (§1) After combining the above variants, each combination was subjected to measurement of a binding ability (that is, affinity). Then, using BIACORE T200 (serial no. 1909913) device, BIACORE T200 Control Software V2.0.1 and BIACORE T200 Evaluation Software V3.0 (GE Healthcare, Uppsala, Sweden) analysis program, affinity of each candidate antibody to the antigen, c-Met, was determined along with a dissociation constant (KD value). After fixing the anti-cMet antibody to be analyzed on a protein ACM5 chip (GE Healthcare, Little Chalfont, UK), sensorgrams were acquired by flowing human c-Met antigen (Sino Biological, Beijing, China) at different concentrations in a range of 0.25 to 2 nM over the antibody. Based on the acquired sensorgrams, rate constants kₒₙ and koff were measured and KD value was calculated from a ratio of koff/kₒₙ. The calculated results are shown in Table 10 below, wherein 10 analyzed antibodies were listed in the order of higher affinity to lower affinity.
(§2) In order to determine a final candidate group from the above selected candidate antibodies, standards for determination were subdivided into expression level, affinity, thermal stability and biopotency, and used for comparison. Generally, considering production time and costs, the expression level among the above standards is regarded as the most important indicator. Accordingly, in first consideration of smooth antibody production, the present inventors have excluded the candidate antibodies with an expression level of less than […]. Thereafter, compared to the reference antibody (VH0/Vk0), improvement of each candidate antibody was converted into a numerical value from each of selection indexes. Then, an assay value of the candidate antibody measured from the selection index was divided by an average assay value to obtain a ratio (index 1). This index 1 was again divided by a ratio of VH0/Vk0 to obtain index 2, which in turn, is normalized (Tables 12 to 15). Further, these numerical values analyzed from four selection indexes (that is, the above indicators) were subjected to multiplying operation, and the candidate antibodies were overall compared with respect to the four selection indexes. Therefore, the finally resultant values (index 3) were listed in the order (highest first).

T1 sequence (P08581 25-932 limits assumed): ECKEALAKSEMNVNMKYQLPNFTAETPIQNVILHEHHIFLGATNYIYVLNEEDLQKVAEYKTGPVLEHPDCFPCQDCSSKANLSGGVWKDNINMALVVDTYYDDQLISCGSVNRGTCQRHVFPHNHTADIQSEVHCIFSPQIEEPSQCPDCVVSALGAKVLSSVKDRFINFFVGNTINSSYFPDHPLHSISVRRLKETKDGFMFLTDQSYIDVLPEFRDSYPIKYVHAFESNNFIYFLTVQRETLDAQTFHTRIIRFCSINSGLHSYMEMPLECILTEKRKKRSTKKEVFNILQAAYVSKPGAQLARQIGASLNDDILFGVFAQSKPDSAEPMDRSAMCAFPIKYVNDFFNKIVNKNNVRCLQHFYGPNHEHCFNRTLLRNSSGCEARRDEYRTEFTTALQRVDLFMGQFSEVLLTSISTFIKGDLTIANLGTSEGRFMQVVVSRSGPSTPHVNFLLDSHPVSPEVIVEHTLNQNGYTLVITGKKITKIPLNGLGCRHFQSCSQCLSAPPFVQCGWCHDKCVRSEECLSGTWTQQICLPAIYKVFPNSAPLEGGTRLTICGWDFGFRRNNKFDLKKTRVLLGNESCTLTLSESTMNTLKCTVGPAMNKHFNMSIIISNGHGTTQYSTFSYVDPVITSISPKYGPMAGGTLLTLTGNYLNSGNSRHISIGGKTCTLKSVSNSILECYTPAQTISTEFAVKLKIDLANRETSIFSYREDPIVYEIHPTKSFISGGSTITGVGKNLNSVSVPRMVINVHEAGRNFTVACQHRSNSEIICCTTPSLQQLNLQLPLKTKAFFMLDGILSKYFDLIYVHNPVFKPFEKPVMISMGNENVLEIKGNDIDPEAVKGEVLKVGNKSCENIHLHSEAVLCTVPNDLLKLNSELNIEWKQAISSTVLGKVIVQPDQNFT

In order of falling “Index 2 (affinity index normalised to VH0/Vk0)” value:
1. B1  1.48
2. B5  1.32
3. B6  1.26
4. B3  1.24
5. B7  1.23
6. B8  1.18
7. B2  1.02
8. B4  1

Target: c-Met protein receptor on human umbilical vein endothelial cells (HUVEC) (human, UniProt P08581 25-1390)
Test: cell-based or functional assay

Chain of c-Met protein receptor on human umbilical vein endothelial cells (HUVEC) (P08581 25-1390): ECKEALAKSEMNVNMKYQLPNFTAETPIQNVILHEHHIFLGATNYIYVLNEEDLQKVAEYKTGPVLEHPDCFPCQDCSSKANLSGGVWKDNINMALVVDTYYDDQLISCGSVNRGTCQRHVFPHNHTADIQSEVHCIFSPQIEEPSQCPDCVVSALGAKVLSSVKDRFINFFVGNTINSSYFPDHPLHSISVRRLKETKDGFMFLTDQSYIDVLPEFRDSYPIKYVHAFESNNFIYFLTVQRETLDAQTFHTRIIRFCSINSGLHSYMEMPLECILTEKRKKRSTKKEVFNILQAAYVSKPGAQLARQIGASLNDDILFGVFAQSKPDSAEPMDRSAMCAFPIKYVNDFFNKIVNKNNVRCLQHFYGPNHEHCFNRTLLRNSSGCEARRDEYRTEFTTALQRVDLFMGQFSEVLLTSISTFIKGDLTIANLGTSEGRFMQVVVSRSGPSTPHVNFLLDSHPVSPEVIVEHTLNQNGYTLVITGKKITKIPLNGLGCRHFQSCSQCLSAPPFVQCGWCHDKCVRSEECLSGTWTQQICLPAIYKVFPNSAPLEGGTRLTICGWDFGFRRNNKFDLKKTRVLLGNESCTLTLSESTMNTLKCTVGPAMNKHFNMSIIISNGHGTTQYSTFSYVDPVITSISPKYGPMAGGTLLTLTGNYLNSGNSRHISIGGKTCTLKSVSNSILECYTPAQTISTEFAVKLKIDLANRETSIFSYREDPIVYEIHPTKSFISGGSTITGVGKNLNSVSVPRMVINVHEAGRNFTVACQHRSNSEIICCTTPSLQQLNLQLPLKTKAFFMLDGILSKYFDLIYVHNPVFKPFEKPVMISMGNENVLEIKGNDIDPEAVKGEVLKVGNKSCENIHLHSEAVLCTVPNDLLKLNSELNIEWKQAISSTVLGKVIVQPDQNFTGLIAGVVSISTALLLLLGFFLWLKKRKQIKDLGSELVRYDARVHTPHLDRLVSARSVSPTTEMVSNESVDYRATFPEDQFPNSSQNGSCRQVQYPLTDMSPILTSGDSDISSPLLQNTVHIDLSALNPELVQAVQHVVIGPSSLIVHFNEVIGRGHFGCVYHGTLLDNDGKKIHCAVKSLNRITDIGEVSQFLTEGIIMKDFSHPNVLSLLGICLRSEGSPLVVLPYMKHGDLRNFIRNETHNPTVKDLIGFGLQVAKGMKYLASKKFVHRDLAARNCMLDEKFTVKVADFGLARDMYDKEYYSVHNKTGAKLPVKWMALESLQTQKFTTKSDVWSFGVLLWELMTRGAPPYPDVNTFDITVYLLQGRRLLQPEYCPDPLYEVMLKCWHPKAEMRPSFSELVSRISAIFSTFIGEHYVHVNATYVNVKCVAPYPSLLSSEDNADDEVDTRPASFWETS

In order of rising “Relative Migration (%) (HUVEC migration assay)” value:
1. B5  122%
2. B1  128%
3. B4  150%
4. B6  152%
5. B8  154%
6. B2  163%
7. B3  176%
8. B7  177%

Target: T1, human c-Met antigen (Sino Biological)
Test: SPR (BIACORE T200), antibody captured on protein A CM5 chip, human c-Met as analyte
Protocol: as §1

In order of falling “Relative KD to VH0/Vk0” value:
1. B9  1.03
2. B4  1
3. B2  0.98
4. B10  0.97
5. B8  0.85
6. B3  0.81
7. B7  0.81
8. B6  0.8
9. B5  0.76
10. B1  0.68

Target: T1, human c-Met antigen (Sino Biological)
Test: derived from SPR KD (BIACORE T200); values fit 3.52/KD, i.e. relative to the best KD (VH5/Vk0); reference not given
Protocol: as §1, §2

In order of rising “Index 1 (affinity index from KD)” value:
1. B4  0.677
2. B2  0.688
3. B8  0.8
4. B7  0.832
5. B3  0.838
6. B6  0.85
7. B5  0.891
8. B1  1

Target: T1, human c-Met antigen (Sino Biological)
Test: SPR (BIACORE T200), antibody captured on protein A CM5 chip, human c-Met 0.25 to 2 nM as analyte
Protocol: as §1

In order of rising Kd:
1. B1  352 pM
2. B5  395 pM
3. B6  414 pM
4. B3  420 pM
5. B7  423 pM
6. B8  440 pM
7. B10  502 pM
8. B2  512 pM
9. B4  520 pM
10. B9  534 pM
